Laboratory results: paper PMC8395645

Target: FGFR2b Ig-like domains 2-3 (UniProt P21802-3 140-369)
Assay: ITC

Q: Which Kd does the source give for TGTTGGGAGGGGATGGGACGTATAGGTAAGGGCGGGGGTGGACACG (structured_DNA) [Apt_46] here?
A: 46.3 ± 16.2 nM
